Assay [1] deals with T1, β2AR (Homo sapiens, UniProt P07550).
T1 construct: Flag (N); expressed in transfected cells
Kind of assay: BRET titration assay of βarrestin2 construct recruitment to β2AR-Rluc. The class given is cell-based. To be noted: HEK-293T cells; β2AR-Rluc with YFP acceptor constructs; isoproterenol 1 μM, 5 min; compared among βarrestin2 constructs. The source says: BRET assays. […] Titration assays were first completed, which allowed determination of the specificity of association among different interaction partners. See Nagi and Shenoy. 2019, supra; Gales et al. 2005. Nature methods 2:177-184; Nagi et al. 2015. Cellular and molecular life sciences: CMLS 72:3543-3557; Audet and Pineyro. 2011. Methods in molecular biology 756:149-163; and Rebois et al. 2006. Journal of cell science 119:2807-2818. To achieve this, a fixed amount of the donor-tagged (Renilla luciferase, Rluc) construct was co-transfected with increasing amounts of the corresponding interaction partner bearing the acceptor (YFP). […] BRET readings were acquired using Synergy Neo2 plate reader and obtained 5 min after manual addition of Rluc substrate, coelenterazine h (Promega) to a final concentration of 5 μM.
The BRET signal generated was determined by calculating the ratio of light emitted by YFP (520-550 nm) over the light emitted by Rluc (440-480 nm). These values were then corrected by subtracting the background signal (detected when the Rluc-tagged construct was expressed without acceptor) from the BRET signal detected in cells co-expressing both donor and acceptor constructs. Agonist-induced BRET values were calculated by subtracting net BRET values of non-stimulated conditions from net BRET values corresponding to the stimulated conditions. […]
A general note: BRET reads energy transfer from a luciferase to a nearby fluorophore.

The subject of assay [2] is HEK-293 cells. Kind of assay: Confocal microscopy of subcellular distribution of YFP-tagged proteins. It is filed as cell-based, Human. The settings on record: 85 cells (mYFP-βarrestin2-SUMO1) and 80 cells (mYFP-SUMO1) observed. The protocol:
Immunostaining and confocal microscopy. […] Twenty-four hours post-transfection, cells were serum-starved for 4 h, and either left untreated or treated with respective agonists for the indicated times in the Figure descriptions. After stimulation, cells were fixed with 5% formaldehyde diluted in phosphate-buffered saline (PBS), permeabilized with 0.1% Triton in PBS containing 2% bovine serum albumin for 20 min and incubated at room temperature with appropriate primary antibody. The next day, cells were washed three times with PBS and incubated with Alexa594 conjugated secondary antibody for 1 h, followed by repeated washes using PBS. Confocal images were acquired using Zeiss LSM510 laser-scanning microscope using multitrack sequential with excitation (488 and 568 nm) and emission (BP 505-550 nm and LP 585 nm) filter sets. […] The nuclear rim localization of YFP-βarrestin2-SUMO1 is readily visualized in cells with low to moderate expression of YFP-protein. […]
To circumvent this issue, a YFP tagged βarrestin2-SUMO1 fusion protein was generated, which would be resistant to the enzymatic activity of SENP1. YFP-βarrestin2-SUMO1 expressed in the cytoplasm akin to YFP-βarrestin2; but was also detected at the nuclear membrane (data not shown). […] While YFP-SUMO1 was concentrated in the nucleus, and nucleoli, very little βarrestin2-SUMO1 was detected in the nucleus or nucleolus. […]

Assay [3] addresses T2, D2R (Homo sapiens, UniProt P14416).
T2 construct: HA (N); expressed in transfected cells
Kind of assay: Confocal trafficking and colocalization with D2R. It is filed as cell-based. To be noted: HEK-293 cells stably expressing D2R. As to the method:
Immunostaining and confocal microscopy. […] Twenty-four hours post-transfection, cells were serum-starved for 4 h, and either left untreated or treated with respective agonists for the indicated times in the Figure descriptions. After stimulation, cells were fixed with 5% formaldehyde diluted in phosphate-buffered saline (PBS), permeabilized with 0.1% Triton in PBS containing 2% bovine serum albumin for 20 min and incubated at room temperature with appropriate primary antibody. The next day, cells were washed three times with PBS and incubated with Alexa594 conjugated secondary antibody for 1 h, followed by repeated washes using PBS. Confocal images were acquired using Zeiss LSM510 laser-scanning microscope using multitrack sequential with excitation (488 and 568 nm) and emission (BP 505-550 nm and LP 585 nm) filter sets. Images (1024×1024 pixels) were collected using either a 63× or 100× oil immersion lens. Images were processed for Figure presentation using Adobe Photoshop software, and any increase or decrease of brightness/contrast was applied to the entire image. The nuclear rim localization of YFP-βarrestin2-SUMO1 is readily visualized in cells with low to moderate expression of YFP-protein. In cells with high expression, this localization is present, and can be discerned by enlarging sections of the nuclear rim. […]

Assay [4] has as its target T1, β2AR. Kind of assay: Confocal trafficking and colocalization with β2AR. The class given is cell-based. The settings on record: HEK-293 cells with stable β2AR expression; agonist up to 20 minutes. The protocol: Immunostaining and confocal microscopy. […] Twenty-four hours post-transfection, cells were serum-starved for 4 h, and either left untreated or treated with respective agonists for the indicated times in the Figure descriptions. After stimulation, cells were fixed with 5% formaldehyde diluted in phosphate-buffered saline (PBS), permeabilized with 0.1% Triton in PBS containing 2% bovine serum albumin for 20 min and incubated at room temperature with appropriate primary antibody. The next day, cells were washed three times with PBS and incubated with Alexa594 conjugated secondary antibody for 1 h, followed by repeated washes using PBS. Confocal images were acquired using Zeiss LSM510 laser-scanning microscope using multitrack sequential with excitation (488 and 568 nm) and emission (BP 505-550 nm and LP 585 nm) filter sets. Images (1024×1024 pixels) were collected using either a 63× or 100× oil immersion lens. Images were processed for Figure presentation using Adobe Photoshop software, and any increase or decrease of brightness/contrast was applied to the entire image. The nuclear rim localization of YFP-βarrestin2-SUMO1 is readily visualized in cells with low to moderate expression of YFP-protein. In cells with high expression, this localization is present, and can be discerned by enlarging sections of the nuclear rim.
For βarrestin2-SUMO1, plasma membrane translocation was detected upon β2AR agonist activation, and, intriguingly, βarrestin2-SUMO1 was detected in endocytic vesicles. […] Confocal images were taken of cells stably expressing the β2AR and transiently expressing YFP-SUMO1 (data not shown). In both quiescent and agonist-treated cells, the SUMO1 protein remained in the nucleus. […] See Shenoy et al. 2007, supra; Shenoy and Lefkowitz. 2005. J Biol Chem 280:15315-15324; and Shenoy and Lefkowitz. 2003. J Biol Chem 278:14498-14506. Therefore, the endosomal trafficking was compared for βarrestin2-ubiquitin (βarrestin2-Ub) fusion protein and internalized β2ARs. […]

Assay [5] concerns the target T3, RanGAP1 (Homo sapiens, UniProt P46060).
T3 construct: endogenous in cells; host or cells: HEK-293T / HEK-293
Kind of assay: Co-immunoprecipitation of YFP-βarrestin2 constructs with endogenous RanGAP1. The class given is binding. The settings on record: IP of YFP proteins, probed for RanGAP1. The text has this:
HEK-293T cells were transiently transfected with indicated plasmids and subjected to coimmunoprecipitation with GFP IgG (3E6, Thermo Fisher) to immunoprecipitate YFP-βarrestin2 or YFP-βarrestin2-SUMO1 (“IP: YFP”). IPs were probed for endogenous RanGAP1, and for βarrestins. Cell lysates were also blotted to determine total cell protein levels (“Lysates”). Blots shown are from one of three independent experiments.

T3 sequence (P46060 2-587 limits assumed): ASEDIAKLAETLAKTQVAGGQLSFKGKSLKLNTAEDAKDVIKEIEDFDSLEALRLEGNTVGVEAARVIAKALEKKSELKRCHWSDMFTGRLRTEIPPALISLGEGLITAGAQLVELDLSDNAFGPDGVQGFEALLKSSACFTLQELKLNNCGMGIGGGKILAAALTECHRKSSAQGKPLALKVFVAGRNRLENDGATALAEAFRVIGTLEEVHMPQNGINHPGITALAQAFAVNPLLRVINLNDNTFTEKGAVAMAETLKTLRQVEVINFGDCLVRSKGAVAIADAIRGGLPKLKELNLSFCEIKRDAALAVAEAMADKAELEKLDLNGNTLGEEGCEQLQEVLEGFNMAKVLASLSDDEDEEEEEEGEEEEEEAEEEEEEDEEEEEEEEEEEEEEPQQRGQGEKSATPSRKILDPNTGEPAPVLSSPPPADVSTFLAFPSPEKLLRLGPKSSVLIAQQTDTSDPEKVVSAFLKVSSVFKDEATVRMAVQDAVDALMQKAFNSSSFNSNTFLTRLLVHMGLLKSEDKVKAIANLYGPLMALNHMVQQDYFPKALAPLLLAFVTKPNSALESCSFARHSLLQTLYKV
T3 sequence (P63165 2-97 partner limits assumed): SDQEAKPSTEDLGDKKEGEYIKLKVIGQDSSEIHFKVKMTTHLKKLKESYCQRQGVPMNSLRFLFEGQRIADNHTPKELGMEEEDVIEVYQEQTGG
T2 sequence (P14416 whole entry): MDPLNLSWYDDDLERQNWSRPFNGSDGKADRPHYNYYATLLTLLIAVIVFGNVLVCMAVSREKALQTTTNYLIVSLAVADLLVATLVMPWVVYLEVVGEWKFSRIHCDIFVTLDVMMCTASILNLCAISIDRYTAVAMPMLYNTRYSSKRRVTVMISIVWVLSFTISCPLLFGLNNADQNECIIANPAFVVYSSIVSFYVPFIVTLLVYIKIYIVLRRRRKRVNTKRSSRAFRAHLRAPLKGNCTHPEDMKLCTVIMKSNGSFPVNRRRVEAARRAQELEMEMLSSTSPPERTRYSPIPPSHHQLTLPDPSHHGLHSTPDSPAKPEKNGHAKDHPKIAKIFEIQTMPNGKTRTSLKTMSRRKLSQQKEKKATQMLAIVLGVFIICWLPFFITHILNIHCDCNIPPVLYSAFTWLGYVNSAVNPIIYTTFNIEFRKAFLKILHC

With “βarrestin2-SUMO1: rat βarrestin2 polypeptide fused to human SUMO1 (SEQ ID NO:1); used YFP- or Flag-tagged”, in assay [1], the “agonist-induced net BRET change for interaction with β2AR” value is given as “highest change in the net BRET value”. The “localization of YFP fluorescence at the nuclear membrane” value in assay [2] is “all cells”. Moreover, the “stability of association with activated D2R (confocal)” value in assay [3] is reported as “associate stably”. Moreover, the “colocalization / complexes with β2AR after agonist activation (confocal)” value in assay [4] is on record as “persisted with longer agonist activation”. Further, in assay [5], the “association with endogenous RanGAP1 forms by co-immunoprecipitation” value is given as “associated only with SUMO-RanGAP1”.

The values are drawn from patent US20230227514A1, “BETA-ARRESTIN COMPOSITIONS AND ASSOCIATED METHODS” (Duke University, priority 2020, published 2023).
